Assay results: publication PMC5148612

B1: Atg12~Atg5-Atg16-mCherry complex [modified: conjugated to Atg5 (Atg12~Atg5 protein conjugate) | conjugated to Atg12; conjugated to Atg5 (Atg12~Atg5 protein conjugate); conjugated to Atg12] [S. cerevisiae] / GST-prApe1(1–45) + … (parent)
chain 1: MSRILESENETESDESSIISTNNGTAMERSRNNQELRSSPHTVQNRLELFSRRLSQLGLASDISVDQQVEDSSSGTYEQEETIKTNAQTSKQKSHKDEKNIQKIQIKFQPIGSIGQLKPSVCKISMSQSFAMVILFLKRRLKMDHVYCYINNSFAPSPQQNIGELWMQFKTNDELIVSYCASVAFG
chain 2: MNDIKQLLWNGELNVLVSIDPSFLMKGSPREIAVLRIRVPRETYLVNYMPLIWNKIKSFLSFDPLTDSEKYFWFEHNKTPIPWNYPVGVLFDCLAGKSATFTTSFENQVKDVLTFLRIHLVMGDSLPPTIIPIASSKTQAEKFWFHQWKQVCFILNGSSKAIMSLSVNEARKFWGSVITRNFQDFIEISNKISSSRPRHIPLIIQTSRTSGTFRISQPTISMTGVNPTLKDIEGDILDVKEGINGNDVMVICQGIEIPWHMLLYDLYSKLRSFDGFLYITLVPIKGGDKASSEL
chain 3: MGNFIITERKKAKEERSNPQTDSMDDLLIRRLTDRNDKEAHLNELFQDNSGAIGGNIVSHDDALLNTLAILQKELKSKEQEIRRLKEVIALKNKNTERLNDELISGTIENNVLQQKLSDLKKEHSQLVARWLKKTEKETEAMNSEIDGTK
chain 4: MEEQREILEQLKKTLQMLTVEPSKNNQIANEEKEKKENENSWCIL
chain 5: MNNSKTNQQMNTSMGYPLTVYDECNKFQLIVPTLDANIMLWCIGQLSLLNDSNGCKHLFWQPNDKSNVRILLNNYDYGHLFKYLQCQRKCSVYIGEGTLKKYNLTISTSFDNFLDLTPSEEKESLCREDAHEDPVSPKAGSEEEISPNSTSNVVVSRECLDNFMKQLLKLEESLNKLELEQKVTNKEPNHRISGTIDIPEDRSELVNFFTELKTVKQLEDVFQRYHDYERLSQECDSKTEIASDHSKKETKIEVEPPNERSLQITMNQRDNSLYFQLFNNTNSVLAGNCKLKFTDAGDKPTTQIIDMGPHEIGIKEYKEYRYFPYALDLEAGSTIEIENQYGEVIFLGKYGSSPMINLRPPSRLSAESLQASQEPFYSFQIDTLPELDDSSIISTSISLSYDGDDNEKALTWEEL

Variants of: B1
Assay: microscopy-based bead recruitment assay (mCherry signal at cargo mimetic beads)
Settings: with GST-prApe1(1–45) + Atg19 [S. cerevisiae]; 25 mM HEPES pH 7.5, 150 NaCl and 1 mM DTT; parent: 100; read off a plot

percent of parent [%] | Variant
70 | chain 2 MNDIKQLLWNGELNVLVSIDPSFLMKGSPREIAVLRIRVPRETYLVNYMPLIWNKIKSFLSFDPLTDSEKYFWFEHNKTPIPWEYPVGVLFDCLAGKSATFTTSFENQVKDVLTFLRIHLVMGDSLPPTIIPIASSKTQAEKFWFHQWKQVCFILNGSSKAIMSLSVNEARKFWGSVITRNFQDFIEISNKISSSRPRHIPLIIQTSRTSGTFRISQPTISMTGVNPTLKDIEGDILDVKEGINGNDVMVICQGIEIPWHMLLYDLYSKLRSFDGFLYITLVPIKGGDKASSEL [chain 2 N84E]
55 | chain 2 MNDIKQLLWNGELNVLVSIDPSFLMKGSPREIAVLRIRVPRETYLVNYMPLIWNKIESFLSFDPLTDSEKYFWFEHNKTPIPWEYPVGVLFDCLAGKSATFTTSFENQVKDVLTFLRIHLVMGDSLPPTIIPIASSKTQAEKFWFHQWKQVCFILNGSSKAIMSLSVNEARKFWGSVITRNFQDFIEISNKISSSRPRHIPLIIQTSRTSGTFRISQPTISMTGVNPTLKDIEGDILDVKEGINGNDVMVICQGIEIPWHMLLYDLYSKLRSFDGFLYITLVPIKGGDKASSEL [chain 2 K57E N84E]
68 | chain 2 MNDIKQLLWNGELNVLVSIDPSFLMKGSPREIAVLRIRVPRETYLVNYMPLIWNKIESFLSFDPLTDSEKYFWFEHNKTPIPWNYPVGVLFDCLAGKSATFTTSFENQVKDVLTFLRIHLVMGDSLPPTIIPIASSKTQAEKFWFHQWKQVCFILNGSSKAIMSLSVNEARKFWGSVITRNFQDFIEISNKISSSRPRHIPLIIQTSRTSGTFRISQPTISMTGVNPTLKDIEGDILDVKEGINGNDVMVICQGIEIPWHMLLYDLYSKLRSFDGFLYITLVPIKGGDKASSEL [chain 2 K57E]
